Measured values: the supplement of paper PMC5998384

Columns and labels:
HeLa Kyoto [1] = assay: thermal stability score vs G1/S (z-score of summed log2 fold changes over temperatures); higher = more thermally stable than in G1/S
HeLa Kyoto [2] = assay: solubility change mitosis vs G1/S (difference of NP-40 vs SDS log2 ratios) (log2 ratio difference); higher = more soluble in mitosis
HeLa Kyoto [3] = assay: melting temperature (median over replicates), in situ; higher = more thermally stable
HeLa Kyoto [4] = assay: solubility in G1/S (NP-40 vs SDS abundance) (log2 ratio); higher = more soluble; conditions: cell cycle stage: G1/S
[5] = cell cycle stage: early G1 (4.5 h after nocodazole release)
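For melting temperature (median over replicates), in situ in this document: HeLa Kyoto cells synchronized by double thymidine or nocodazole block, proteins quantified by TMT10plex mass spectrometry, three independent biological replicates.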
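For solubility change mitosis vs G1/S (difference of NP-40 vs SDS log2 ratios) in this document: synchronized HeLa Kyoto cells (double thymidine block for G1/S, nocodazole release for mitosis), protein amounts in NP-40 versus SDS lysates quantified by mass spectrometry, three biological replicates.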
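For solubility in G1/S (NP-40 vs SDS abundance) in this document: HeLa Kyoto cells arrested at G1/S by double thymidine block, proteins quantified by TMT10plex mass spectrometry in mild NP-40 versus SDS extracts, three biological replicates.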
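For thermal stability score vs G1/S (z-score of summed log2 fold changes over temperatures) in this document: synchronized HeLa Kyoto cells, proteins quantified by TMT10plex mass spectrometry, three biological replicates, mitosis taken 0.5 h after nocodazole release, G1/S directly after double thymidine block.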

Sequence: MPPRRSIVEVKVLDVQKRRVPNKHYVYIIRVTWSSGSTEAIYRRYSKFFDLQMQMLDKFPMEGGQKDPKQRIIPFLPGKILFRRSHIRDVAVKRLIPIDEYCKALIQLPPYISQCDEVLQFFETRPEDLNPPKEEHIGKKKSGGDQTSVDPMVLEQYVVVANYQKQESSEISLSVGQVVDIIEKNESGWWFVSTAEEQGWVPATCLEGQDGVQDEFSLQPEEEEKYTVIYPYTARDQDEMNLERGAVVEVIQKNLEGWWKIRYQGKEGWAPASYLKKNSGEPLPPKPGPGSPSHPGALDLDGVSRQQNAVGREKELLSSQRDGRFEGRPVPDGDAKQRSPKMRQRPPPRRDMTIPRGLNLPKPPIPPQVEEEYYTIAEFQTTIPDGISFQAGLKVEVIEKNLSGWWYIQIEDKEGWAPATFIDKYKKTSNASRPNFLAPLPHEVTQLRLGEAAALENNTGSEATGPSRPLPDAPHGVMDSGLPWSKDWKGSKDVLRKASSDMSASAGYEEISDPDMEEKPSLPPRKESIIKSEGELLERERERQRTEQLRGPTPKPPGVILPMMPAKHIPPARDSRRPEPKPDKSRLFQLKNDMGLECGHKVLAKEVKKPNLRPISKSKTDLPEEKPDATPQNPFLKSRPQVRPKPAPSPKTEPPQGEDQVDICNLRSKLRPAKSQDKSLLDGEGPQAVGGQDVAFSRSFLPGEGPGRAQDRTGKQDGLSPKEISCRAPPRPAKTTDPVSKSVPVPLQEAPQQRPVVPPRRPPPPKKTSSSSRPLPEVRGPQCEGHESRAAPTPGRALLVPPKAKPFLSNSLGGQDDTRGKGSLGPWGTGKIGENREKAAAASVPNADGLKDSLYVAVADFEGDKDTSSFQEGTVFEVREKNSSGWWFCQVLSGAPSWEGWIPSNYLRKKP [SH3PXD2B]
- thermal stability score (HeLa Kyoto [1]; [5]): -0.513
- thermal stability score (HeLa Kyoto [1]; cell cycle stage: mitosis): 0.253
- solubility change mitosis (log2) (HeLa Kyoto [2]): -0.129
- melting temperature (HeLa Kyoto [3]; cell cycle stage: G1/S): 48.9 °C
- melting temperature (HeLa Kyoto [3]; cell cycle stage: mitosis): 49.9 °C
- solubility in G1/S (log2) (HeLa Kyoto [4]): -0.0158

Sequence: MPSSPLRVAVVCSSNQNRSMEAHNILSKRGFSVRSFGTGTHVKLPGPAPDKPNVYDFKTTYDQMYNDLLRKDKELYTQNGILHMLDRNKRIKPRPERFQNCKDLFDLILTCEERVYDQVVEDLNSREQETCQPVHVVNVDIQDNHEEATLGAFLICELCQCIQHTEDMENEIDELLQEFEEKSGRTFLHTVCFY [SSU72]
- thermal stability score (HeLa Kyoto [1]; [5]): 0.263
- thermal stability score (HeLa Kyoto [1]; cell cycle stage: mitosis): -0.182
- solubility change mitosis (log2) (HeLa Kyoto [2]): -0.0234
- melting temperature (HeLa Kyoto [3]; cell cycle stage: G1/S): 48.1 °C
- melting temperature (HeLa Kyoto [3]; cell cycle stage: mitosis): 49.4 °C
- solubility in G1/S (log2) (HeLa Kyoto [4]): 0.4

Sequence: MPSTNRAGSLKDPEIAELFFKEDPEKLFTDLREIGHGSFGAVYFARDVRTNEVVAIKKMSYSGKQSTEKWQDIIKEVKFLQRIKHPNSIEYKGCYLREHTAWLVMEYCLGSASDLLEVHKKPLQEVEIAAITHGALQGLAYLHSHTMIHRDIKAGNILLTEPGQVKLADFGSASMASPANSFVGTPYWMAPEVILAMDEGQYDGKVDVWSLGITCIELAERKPPLFNMNAMSALYHIAQNESPTLQSNEWSDYFRNFVDSCLQKIPQDRPTSEELLKHIFVLRERPETVLIDLIQRTKDAVRELDNLQYRKMKKLLFQEAHNGPAVEAQEEEEEQDHGVGRTGTVNSVGSNQSIPSMSISASSQSSSVNSLPDVSDDKSELDMMEGDHTVMSNSSVIHLKPEEENYREEGDPRTRASDPQSPPQVSRHKSHYRNREHFATIRTASLVTRQMQEHEQDSELREQMSGYKRMRRQHQKQLMTLENKLKAEMDEHRLRLDKDLETQRNNFAAEMEKLIKKHQAAMEKEAKVMSNEEKKFQQHIQAQQKKELNSFLESQKREYKLRKEQLKEELNENQSTPKKEKQEWLSKQKENIQHFQAEEEANLLRRQRQYLELECRRFKRRMLLGRHNLEQDLVREELNKRQTQKDLEHAMLLRQHESMQELEFRHLNTIQKMRCELIRLQHQTELTNQLEYNKRRERELRRKHVMEVRQQPKSLKSKELQIKKQFQDTCKIQTRQYKALRNHLLETTPKSEHKAVLKRLKEEQTRKLAILAEQYDHSINEMLSTQALRLDEAQEAECQVLKMQLQQELELLNAYQSKIKMQAEAQHDRELRELEQRVSLRRALLEQKIEEEMLALQNERTERIRSLLERQAREIEAFDSESMRLGFSNMVLSNLSPEAFSHSYPGASGWSHNPTGGPGPHWGHPMGGPPQAWGHPMQGGPQPWGHPSGPMQGVPRGSSMGVRNSPQALRRTASGGRTEQGMSRSTSVTSQISNGSHMSYT [TAOK1]
- thermal stability score (HeLa Kyoto [1]; [5]): 0.109
- thermal stability score (HeLa Kyoto [1]; cell cycle stage: mitosis): -0.35
- solubility change mitosis (log2) (HeLa Kyoto [2]): -0.0943
- melting temperature (HeLa Kyoto [3]; cell cycle stage: G1/S): 51.7 °C
- melting temperature (HeLa Kyoto [3]; cell cycle stage: mitosis): 50.8 °C
- solubility in G1/S (log2) (HeLa Kyoto [4]): 0.0325

Sequence: MPTQRDSSTMSHTVAGGGSGDHSHQVRVKAYYRGDIMITHFEPSISFEGLCNEVRDMCSFDNEQLFTMKWIDEEGDPCTVSSQLELEEAFRLYELNKDSELLIHVFPCVPERPGMPCPGEDKSIYRRGARRWRKLYCANGHTFQAKRFNRRAHCAICTDRIWGLGRQGYKCINCKLLVHKKCHKLVTIECGRHSLPQEPVMPMDQSSMHSDHAQTVIPYNPSSHESLDQVGEEKEAMNTRESGKASSSLGLQDFDLLRVIGRGSYAKVLLVRLKKTDRIYAMKVVKKELVNDDEDIDWVQTEKHVFEQASNHPFLVGLHSCFQTESRLFFVIEYVNGGDLMFHMQRQRKLPEEHARFYSAEISLALNYLHERGIIYRDLKLDNVLLDSEGHIKLTDYGMCKEGLRPGDTTSTFCGTPNYIAPEILRGEDYGFSVDWWALGVLMFEMMAGRSPFDIVGSSDNPDQNTEDYLFQVILEKQIRIPRSLSVKAASVLKSFLNKDPKERLGCHPQTGFADIQGHPFFRNVDWDMMEQKQVVPPFKPNISGEFGLDNFDSQFTNEPVQLTPDDDDIVRKIDQSEFEGFEYINPLLMSAEECV [PRKCI]
- thermal stability score (HeLa Kyoto [1]; [5]): 0.877
- thermal stability score (HeLa Kyoto [1]; cell cycle stage: mitosis): 0.84
- solubility change mitosis (log2) (HeLa Kyoto [2]): -0.129
- melting temperature (HeLa Kyoto [3]; cell cycle stage: G1/S): 50.7 °C
- melting temperature (HeLa Kyoto [3]; cell cycle stage: mitosis): 51 °C
- solubility in G1/S (log2) (HeLa Kyoto [4]): -0.127

Sequence: MPTTIEREFEELDTQRRWQPLYLEIRNESHDYPHRVAKFPENRNRNRYRDVSPYDHSRVKLQNAENDYINASLVDIEEAQRSYILTQGPLPNTCCHFWLMVWQQKTKAVVMLNRIVEKESVKCAQYWPTDDQEMLFKETGFSVKLLSEDVKSYYTVHLLQLENINSGETRTISHFHYTTWPDFGVPESPASFLNFLFKVRESGSLNPDHGPAVIHCSAGIGRSGTFSLVDTCLVLMEKGDDINIKQVLLNMRKYRMGLIQTPDQLRFSYMAIIEGAKCIKGDSSIQKRWKELSKEDLSPAFDHSPNKIMTEKYNGNRIGLEEEKLTGDRCTGLSSKMQDTMEENSESALRKRIREDRKATTAQKVQQMKQRLNENERKRKRWLYWQPILTKMGFMSVILVGAFVGWTLFFQQNAL [PTPN2]
- thermal stability score (HeLa Kyoto [1]; [5]): 0.409
- thermal stability score (HeLa Kyoto [1]; cell cycle stage: mitosis): 1.35
- solubility change mitosis (log2) (HeLa Kyoto [2]): -0.142
- melting temperature (HeLa Kyoto [3]; cell cycle stage: G1/S): 49 °C
- melting temperature (HeLa Kyoto [3]; cell cycle stage: mitosis): 49.2 °C
- solubility in G1/S (log2) (HeLa Kyoto [4]): 0.0769

Sequence: MPVVRKIFRRRRGDSESEEDEQDSEEVRLKLEETREVQNLRKRPNGVSAVALLVGEKVQEETTLVDDPFQMKTGGMVDMKKLKERGKDKISEEEDLHLGTSFSAETNRRDEDADMMKYIETELKKRKGIVEHEEQKVKPKNAEDCLYELPENIRVSSAKKTEEMLSNQMLSGIPEVDLGIDAKIKNIISTEDAKARLLAEQQNKKKDSETSFVPTNMAVNYVQHNRFYHEELNAPIRRNKEEPKARPLRVGDTEKPEPERSPPNRKRPANEKATDDYHYEKFKKMNRRY [C9ORF78]
- thermal stability score (HeLa Kyoto [1]; [5]): -2.13
- thermal stability score (HeLa Kyoto [1]; cell cycle stage: mitosis): -4.34
- solubility change mitosis (log2) (HeLa Kyoto [2]): 0.0516
- melting temperature (HeLa Kyoto [3]; cell cycle stage: G1/S): 57.3 °C
- melting temperature (HeLa Kyoto [3]; cell cycle stage: mitosis): 55.1 °C
- solubility in G1/S (log2) (HeLa Kyoto [4]): 0.501

Sequence: MQANGAGGGGGGGGGGGGGGGGGGGQGQTPELACLSAQNGESSPSSSSSAGDLAHANGLLPSAPSAASNNSNSLNVNNGVPGGAAAASSATVAAASATTAASSSLATPELGSSLKKKKRLSQSDEDVIRLIGQHLNGLGLNQTVDLLMQESGCRLEHPSATKFRNHVMEGDWDKAENDLNELKPLVHSPHAIVVRGALEISQTLLGIIVRMKFLLLQQKYLEYLEDGKVLEALQVLRCELTPLKYNTERIHVLSGYLMCSHAEDLRAKAEWEGKGTASRSKLLDKLQTYLPPSVMLPPRRLQTLLRQAVELQRDRCLYHNTKLDNNLDSVSLLIDHVCSRRQFPCYTQQILTEHCNEVWFCKFSNDGTKLATGSKDTTVIIWQVDPDTHLLKLLKTLEGHAYGVSYIAWSPDDNYLVACGPDDCSELWLWNVQTGELRTKMSQSHEDSLTSVAWNPDGKRFVTGGQRGQFYQCDLDGNLLDSWEGVRVQCLWCLSDGKTVLASDTHQRIRGYNFEDLTDRNIVQEDHPIMSFTISKNGRLALLNVATQGVHLWDLQDRVLVRKYQGVTQGFYTIHSCFGGHNEDFIASGSEDHKVYIWHKRSELPIAELTGHTRTVNCVSWNPQIPSMMASASDDGTVRIWGPAPFIDHQNIEEECSSMDS [WDR26]
- thermal stability score (HeLa Kyoto [1]; [5]): 0.266
- thermal stability score (HeLa Kyoto [1]; cell cycle stage: mitosis): 0.763
- solubility change mitosis (log2) (HeLa Kyoto [2]): -0.151
- melting temperature (HeLa Kyoto [3]; cell cycle stage: G1/S): 52.1 °C
- melting temperature (HeLa Kyoto [3]; cell cycle stage: mitosis): 50.7 °C
- solubility in G1/S (log2) (HeLa Kyoto [4]): -0.108
